T1: Bcl-w, Q92843
T1 chain: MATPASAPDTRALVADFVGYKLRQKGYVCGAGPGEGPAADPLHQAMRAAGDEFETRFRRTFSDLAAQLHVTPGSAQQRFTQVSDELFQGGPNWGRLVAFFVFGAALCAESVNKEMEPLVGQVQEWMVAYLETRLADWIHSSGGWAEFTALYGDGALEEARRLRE

T2: Bfl-1, Q16548
T2 chain: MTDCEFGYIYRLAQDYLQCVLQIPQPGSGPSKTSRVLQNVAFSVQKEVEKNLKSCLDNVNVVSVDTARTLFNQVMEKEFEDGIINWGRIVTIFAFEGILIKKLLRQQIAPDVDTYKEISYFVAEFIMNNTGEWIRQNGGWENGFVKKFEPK

T3: Mcl-1, Q07820
T3 chain: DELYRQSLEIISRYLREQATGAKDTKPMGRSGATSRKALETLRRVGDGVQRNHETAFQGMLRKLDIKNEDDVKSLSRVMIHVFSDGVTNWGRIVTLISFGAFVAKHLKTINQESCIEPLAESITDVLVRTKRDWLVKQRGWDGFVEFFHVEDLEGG


What was measured:
Test in all cases: peptide SPOT array, c-Myc-tagged receptor at 1 uM or 100 nM, anti-c-Myc-Cy3
[1] = target: Bcl-2, P10415
[2] = target: T1, Bcl-w, Q92843
[3] = target: Bcl-xL, Q07817
[4] = target: T2, Bfl-1, Q16548
[5] = target: T3, Mcl-1, Q07820

Bcl-xL, Q07817, sequence (Q07817 1-209): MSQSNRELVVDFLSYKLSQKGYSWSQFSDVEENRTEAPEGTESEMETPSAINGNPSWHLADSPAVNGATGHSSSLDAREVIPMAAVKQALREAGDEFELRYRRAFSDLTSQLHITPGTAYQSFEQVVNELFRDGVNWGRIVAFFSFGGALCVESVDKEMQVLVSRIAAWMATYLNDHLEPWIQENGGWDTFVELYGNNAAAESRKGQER
Bcl-2, P10415, sequence (P10415 1-217): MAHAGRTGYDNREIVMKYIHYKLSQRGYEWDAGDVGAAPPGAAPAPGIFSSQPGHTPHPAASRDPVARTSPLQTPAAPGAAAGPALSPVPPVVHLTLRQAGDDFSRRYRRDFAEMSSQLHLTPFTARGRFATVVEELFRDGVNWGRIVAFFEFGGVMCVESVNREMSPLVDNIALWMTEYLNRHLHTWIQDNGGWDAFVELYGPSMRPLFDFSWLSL

Row | SPOT signal as a fraction of Bim BH3's signal on the same receptor and array [1] | SPOT signal as a fraction of Bim BH3's signal on the same receptor and array [2] | SPOT signal as a fraction of Bim BH3's signal on the same receptor and array [3] | SPOT signal as a fraction of Bim BH3's signal on the same receptor and array [4] | SPOT signal as a fraction of Bim BH3's signal on the same receptor and array [5] | Binder
1 | 0.01 | 0.02 | 0.03 | 0.01 | 0.02 | NMSNYSSSSLLSGAGKDSLVEHDEEF [KIAA0367]
2 | 0.08 | 0.2 | 0.12 | 0.35 | 0.23 | DQEEACASRQLHSLASFSTVTARRNP [INCA1]
3 | 0.02 | 0.03 | 0.07 | 0.04 | 0.05 | KWTAEEVVLWLEQLGPWASLYRERFL [BFAR]
4 | 0.01 | 0.02 | 0.04 | 0.02 | 0.02 | KFMKTIPGTALVEMGDEYAVERAVTH [HNRPLL]
5 | 0.33 | 1.03 | 0.89 | 0.78 | 0.48 | ELLRLRQHWKLRKVGDKILGDLSYRS [MED17]
6 | 0.02 | 0.03 | 0.07 | 0.02 | 0.05 | PFKKMDFSRNLYDIGEQLDSEDLASL [CASP8]
7 | 0.09 | 0.64 | 0.12 | 0.45 | 0.43 | GAQHSTMTSTLRRLGEDIFKGVVTKG [CCDC138]
8 | 0.01 | 0.03 | 0.03 | 0.08 | 0.06 | FSVDLNASRSLSQVAMDLHEAVSMKL [DCST2]
9 | 0.01 | 0.02 | 0.03 | 0.01 | 0.03 | ASEAMLFEEALEKYGKDFNDIRQDFL [MTA2]
10 | 0.2 | 1.09 | 0.29 | 0.75 | 0.47 | DLSSTFVSLALRKVGDWPLSARREKG [TTC31]

More lines, now with the values behind:

Row | Binder | SPOT signal as a fraction of Bim BH3's signal on the same receptor and array [1] | SPOT signal as a fraction of Bim BH3's signal on the same receptor and array [2] | SPOT signal as a fraction of Bim BH3's signal on the same receptor and array [3] | SPOT signal as a fraction of Bim BH3's signal on the same receptor and array [4] | SPOT signal as a fraction of Bim BH3's signal on the same receptor and array [5]
11 | NRKGEKNGKGLRHFSMKVCEKVQRKG [TFDP1] | 0.18 | 0.91 | 0.54 | 0.52 | 0.3
12 | SCMATVIHNPLKALGDQFYKEAIEHC [DPF3] | 0.15 | 0.2 | 0.13 | 0.03 | 0.02
13 | IKEAADIIQKLHLIAQELPFDRFSEV [EXOC5] | 0.01 | 0.21 | 0.11 | 0.03 | 0.09
14 | EGMRTILVDWLVEVGEEYKLRAETLY [CCNA1] | 0.01 | 0.02 | 0.05 | 0.02 | 0.05
15 | MRPEIWIAQEDRRIGDEFNAYYARRV [BCL2L11] | 0.05 | 0.06 | 0.09 | 0.05 | 0.05
16 | LCKEKPTTALLDKVADNLAIQLAAVT [ILF3] | 0.01 | 0.02 | 0.03 | 0.02 | 0.02
17 | RQAFYLHTTKLTRIARRLCREILRPW [MTA1] | 0.23 | 0.89 | 0.75 | 0.72 | 0.41
18 | DGLDLPSETDLRILGCELIQAAGILL [CCNL1] | 0.01 | 0.01 | 0.03 | 0.01 | 0.03
19 | DATHDEAVQALKRAGKEVLLEVKYMR [SNTB1] | 0.01 | 0.02 | 0.04 | 0.03 | 0.02
20 | KEVEDCVPVFLKHIAHDIYVCGKTIN [TUBGCP6] | 0.01 | 0.02 | 0.04 | 0.03 | 0.02
21 | LNELYQRAKKLSKAGDNIPEEQPVAS [TMX2] | 0.02 | 0.07 | 0.13 | 0.07 | 0.05
22 | VIKQRRLPDQLSKLADRIQLSGRYYL [RAPGEF2] | 0.49 | 1.08 | 1.08 | 0.91 | 0.69

Source: paper PMC4072508, “Genome-Wide Prediction and Validation of Peptides That Bind Human Prosurvival Bcl-2 Proteins” (PLoS Computational Biology, 2014)
